Test results taken from the supplement of paper PMC10567573.

B1: RAD51 (parent)
chain: APKKELINIKGISEAKADKILAEA

Variants of: B1
Experiment: protein stability index of a GFP-peptide fusion (GPS, HEK-293T) (PSI 1-6); higher = more stable
Settings: c terminus: a fixed tail appended
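Note: lentivirally expressed fusions sorted by FACS into six bins by GFP to DsRed ratio, PSI derived from sequencing read proportions per bin multiplied by bin number.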

Going from APKKELINIKGISEAKADKILASA [E23S] to APKKELINIKGISEAKADKILATA [E23T], the protein stability index rises from 3.79 to 4.13.

First: APKKELINIKGISEAKADKILALA [E23L]
Second: APKKELINIKGISEAKADKILAIA [E23I]
The protein stability index of the first is higher: 3.43 for the first, 3.36 for the second.

Compared with APKKELINIKGISEAKADKILARA [E23R], APKKELINIKGISEAKADKILAWA [E23W] is lower in protein stability index: 3.85 for the first, 3.02 for the second.

First: APKKELINIKGISEAKADKILAVA [E23V]
Second: APKKELINIKGISEAKADKILAGA [E23G]
The protein stability index of the first is lower: 3.73 for the first, 4.1 for the second.

Going from APKKELINIKGISEAKADKILANA [E23N] to APKKELINIKGISEAKADKILAQA [E23Q], the protein stability index falls from 4.58 to 4.26.

First: APKKELINIKGISEAKATKILAEA [D18T]
Second: APKKELINIKGISEAKAFKILAEA [D18F]
The protein stability index of the first is higher: 4.04 for the first, 2.59 for the second.

Compared with APKKELINIKGISEAKAYKILAEA [D18Y], APKKELINIKGISEAKALKILAEA [D18L] is higher in protein stability index: 2.63 for the first, 3.9 for the second.

First: APKKELINIKGINEAKADKILAEA [S13N]
Second: APKKELINIKGIYEAKADKILAEA [S13Y]
The protein stability index of the first is higher: 4.65 for the first, 3.71 for the second.

Going from APKKELINIKGIEEAKADKILAEA [S13E] to APKKELINIKGIQEAKADKILAEA [S13Q], the protein stability index falls from 5.23 to 4.83.

First: APKKELINIKGIKEAKADKILAEA [S13K]
Second: APKKELINIKGIDEAKADKILAEA [S13D]
The protein stability index of the first is lower: 4.7 for the first, 5.12 for the second.

First: APKKELINIKGIREAKADKILAEA [S13R]
Second: APVKELINIKGISEAKADKILAEA [K3V]
The protein stability index of the first is lower: 4.36 for the first, 5.06 for the second.

Compared with APHKELINIKGISEAKADKILAEA [K3H], APFKELINIKGISEAKADKILAEA [K3F] is lower in protein stability index: 4.87 for the first, 3.48 for the second.

First: APDKELINIKGISEAKADKILAEA [K3D]
Second: APQKELINIKGISEAKADKILAEA [K3Q]
The protein stability index of the first is lower: 4.71 for the first, 4.81 for the second.

Going from APWKELINIKGISEAKADKILAEA [K3W] to APPKELINIKGISEAKADKILAEA [K3P], the protein stability index rises from 3.81 to 4.83.

First: APLKELINIKGISEAKADKILAEA [K3L]
Second: APKPELINIKGISEAKADKILAEA [K4P]
The protein stability index of the first is lower: 3.3 for the first, 5.05 for the second.

Going from APKEELINIKGISEAKADKILAEA [K4E] to APKQELINIKGISEAKADKILAEA [K4Q], the protein stability index falls from 5.22 to 4.6.

Going from APKMELINIKGISEAKADKILAEA [K4M] to APKDELINIKGISEAKADKILAEA [K4D], the protein stability index rises from 4.13 to 5.31.

Going from APKFELINIKGISEAKADKILAEA [K4F] to APKVELINIKGISEAKADKILAEA [K4V], the protein stability index rises from 4.5 to 4.82.

Compared with APKLELINIKGISEAKADKILAEA [K4L], APKKELINIKGHSEAKADKILAEA [I12H] is higher in protein stability index: 4.19 for the first, 5.44 for the second.

First: APKKELINIKGVSEAKADKILAEA [I12V]
Second: APKKELINIKGTSEAKADKILAEA [I12T]
The protein stability index of the first is lower: 4.7 for the first, 5.16 for the second.

Going from APKKELINIKGSSEAKADKILAEA [I12S] to APKKELINIKGLSEAKADKILAEA [I12L], the protein stability index falls from 5.27 to 4.64.

First: APKKELINIKGGSEAKADKILAEA [I12G]
Second: APKKELINIKGNSEAKADKILAEA [I12N]
The protein stability index of the first is lower: 4.69 for the first, 5.06 for the second.

Going from APKKELINIKGRSEAKADKILAEA [I12R] to APKKELINIKGFSEAKADKILAEA [I12F], the protein stability index falls from 5.14 to 4.33.

First: APKKELINIKGYSEAKADKILAEA [I12Y]
Second: APKKELISIKGISEAKADKILAEA [N8S]
The protein stability index of the first is lower: 4.13 for the first, 4.32 for the second.

Compared with APKKELITIKGISEAKADKILAEA [N8T], APKKELIQIKGISEAKADKILAEA [N8Q] is higher in protein stability index: 4.01 for the first, 4.67 for the second.

Going from APKKELIWIKGISEAKADKILAEA [N8W] to APKKELIYIKGISEAKADKILAEA [N8Y], the protein stability index rises from 3.75 to 4.39.

Compared with APKKELIAIKGISEAKADKILAEA [N8A], APKKELIVIKGISEAKADKILAEA [N8V] is lower in protein stability index: 4.7 for the first, 4.07 for the second.

Going from APKKEWINIKGISEAKADKILAEA [L6W] to APKKENINIKGISEAKADKILAEA [L6N], the protein stability index rises from 4.12 to 4.94.

First: APKKERINIKGISEAKADKILAEA [L6R]
Second: APKKEPINIKGISEAKADKILAEA [L6P]
The protein stability index of the first is lower: 4.61 for the first, 5.31 for the second.

Going from APKKEFINIKGISEAKADKILAEA [L6F] to APKKEEINIKGISEAKADKILAEA [L6E], the protein stability index rises from 4.4 to 5.28.

First: APKKETINIKGISEAKADKILAEA [L6T]
Second: APKKELINIKGISEAKYDKILAEA [A17Y]
The protein stability index of the first is higher: 5.06 for the first, 4.08 for the second.

Compared with APKKELINIKGISEAKCDKILAEA [A17C], APKKELINIKGISEAKEDKILAEA [A17E] is higher in protein stability index: 5.04 for the first, 5.22 for the second.

APKKELINIKGISEAKLDKILAEA [A17L] and APKKELINIKGISEAKVDKILAEA [A17V] are the same in protein stability index: 4.53 for the first, 4.53 for the second.

Going from APKKELINIKGISEAKSDKILAEA [A17S] to APKKELINIKGISEAKWDKILAEA [A17W], the protein stability index falls from 5 to 3.98.

First: APKKELINIKIISEAKADKILAEA [G11I]
Second: APKKELINIKNISEAKADKILAEA [G11N]
The protein stability index of the first is lower: 3.39 for the first, 4.62 for the second.

Going from APKKELINIKLISEAKADKILAEA [G11L] to APKKELINIKVISEAKADKILAEA [G11V], the protein stability index rises from 3.69 to 4.37.

Going from APKKELINIKDISEAKADKILAEA [G11D] to APKKELINIKGISEVKADKILAEA [A15V], the protein stability index rises from 4.9 to 4.95.

Going from APKKELINIKGISEPKADKILAEA [A15P] to APKKELINIKGISECKADKILAEA [A15C], the protein stability index rises from 4.41 to 4.63.

First: APKKELINIKGISEQKADKILAEA [A15Q]
Second: APKKELINIKGISELKADKILAEA [A15L]
The protein stability index of the first is higher: 4.58 for the first, 4.27 for the second.

Going from APKKELINIKGISEWKADKILAEA [A15W] to APKKELINIKGISEHKADKILAEA [A15H], the protein stability index rises from 3.88 to 4.18.

Going from APKKELINIKGISCAKADKILAEA [E14C] to APKKELINIKGISPAKADKILAEA [E14P], the protein stability index rises from 3.66 to 4.96.

First: APKKELINIKGISQAKADKILAEA [E14Q]
Second: APKKELINIKGISSAKADKILAEA [E14S]
The protein stability index of the first is higher: 4.76 for the first, 4.23 for the second.

First: APKKELINIKGISVAKADKILAEA [E14V]
Second: APKKELQNIKGISEAKADKILAEA [I7Q]
The protein stability index of the first is lower: 4.81 for the first, 4.83 for the second.

Compared with APKKELFNIKGISEAKADKILAEA [I7F], APKKELNNIKGISEAKADKILAEA [I7N] is higher in protein stability index: 3.8 for the first, 4.7 for the second.

Compared with APKKELANIKGISEAKADKILAEA [I7A], APKKELENIKGISEAKADKILAEA [I7E] is higher in protein stability index: 5.13 for the first, 5.17 for the second.

APKKELDNIKGISEAKADKILAEA [I7D] and APKKELLNIKGISEAKADKILAEA [I7L] are the same in protein stability index: 5.31 for the first, 5.31 for the second.

Going from APKKELKNIKGISEAKADKILAEA [I7K] to APKKELSNIKGISEAKADKILAEA [I7S], the protein stability index rises from 4.78 to 5.52.
